Numbering of substitutions follows the chain as printed.

This is an account of results in article PMC5665922, “Modulation of the Vault Protein-Protein Interaction for Tuning of Molecular Release” (Scientific Reports, 2017).

Data set [1] has as its target T1, Histidine-tagged INT-interacting MVP domains (His-iMVP), major vault protein domains 3 to 5.
T1 construct: major vault protein (MVP), domains 3, 4 and 5 including the gap between domains 2 and 3, residues 102-276, PCR-amplified from the CP-MVP gene; numbers count on: PDB 2QZV; Cloned NdeI/BamHI in pET-28a; also called MVP domains 3 to 5; source: E. coli BL21(DE3), purified (HisTrap HP; SEC for SPR); not shown: His6, N-terminal, kept
As to the kind of experiment: SPR; Biacore 3000, His-iMVP amine-coupled to CM5 (410, 1860 or 1240 RU), His-INT or variant injected, 25 °C, 50 mM PBS, 150 mM NaCl, pH 7.4; 1-to-1 Langmuir fit; apparent constants. Particulars: both partners purified. For orientation: Surface plasmon resonance follows binding to a sensor surface in real time, without labels.

In data set [2] the target is T1, Histidine-tagged INT-interacting MVP …. As to the kind of experiment: SPR; Biacore 3000, His-iMVP immobilised on CM5 (1010 RU), His-INT/DSA/3H injected at 0.12, 0.25 or 0.5 μM, 25 °C, pH 6.0; apparent constants. The settings on record: both partners purified.
Data set [3] concerns the molecule itself. As to the kind of experiment: SEC; His-INT alone at 0.05, 0.01 and 0.005 mM on Superdex 75 10/300 GL; dimer (D) and monomer (M) peaks; dimer to monomers.

B1: His-INT/DSA/3H (His-INT with histidines substituted at the interaction surface) (domain or fragment)
chain: CIQHWQDAVPWTELLSLQTEDGFWKLTPELGLILNLNTNGLHSFLKQKGIQSLGVKGRECLLDLIATMLVLQFIRTRLEKEGIVFKSLMKMDDASISRNIPWAFEAIKQASEWVRRTEGQYPSICPRLELGNHWDHHTKQLLGLQPISTVSPLHRVLHYSQG
For B1, in data set [1], the Kd was 90 nM; the koff (as a rule, a measure of how fast the partners let go of each other) was 0.00134 s⁻¹; the kon (in general, the second-order rate constant of association) came out at 14900 M⁻¹ s⁻¹. Besides, in data set [2], the Kd was determined as 24 nM, the dissociation rate constant (koff) was 0.000258 s⁻¹ and the kon came to 10800 M⁻¹ s⁻¹.

B2: Histidine-tagged vault-interacting domain of vault poly(ADP-ribose)-polymerase (His-INT) (domain or fragment, UniProt Q9UKK3 1563-1724, looked up)
chain: B1 chain with H133D, H136S, H137A
notes: vault poly(ADP-ribose)-polymerase (VPARP), C-terminal INT domain, residues 1563-1724 of GenBank AF158255; Cloned NdeI/XhoI in pET-28a; Monomer and dimer in equilibrium; also called wild-type INT; full-length His-INT; source: E. coli BL21(DE3), purified (HisTrap HP, SEC; M fraction used); not shown: His6, N-terminal, kept
With B2, the stoichiometry N (in general, the number of molecules, sites or subunits per partner or assembly) in data set [3] turned out to be 2.
